Source: US20140287029A1

Target: HLA-A2 molecules on T2 cells (human)
Experiment: T2 cell-binding assay, flow cytometry of HLA-A2 on T2 cells, peptide 25 µg/mL; negative control
Details: remark: other sources report otherwise

- T2 Binding (mean fluorescence intensity): 88 MFI
Binder: HLFGYSWYK [CAP-7 peptide]
